Experimental data reported in patent publication US20240228562A1 (Pieris, published 2024).
Substitutions are numbered along the chain they refer to. One block for each binder: values may come before it.

Experiments:
Experiment in all cases: SPR (Biacore)
[1] = target: T1, recombinant human CTGF-Fc protein (Creative Biomart) (human)
T1 construct: Bought; also called human CTGF with a human IgG1 Fc Tag
Experimental: (§1) The binding of exemplary lipocalin muteins to human (Creative Biomart), cynomolgus, rat (R&D Systems) and mouse CTGF (Abbexa) was determined by SPR using a Biacore instrument (Cytiva, formerly GE Healthcare). Some targets were fused to a human IgG1 Fc tag, and captured via the anti-human IgG antibody kit, others were directly immobilized.
(§2) For some measurements, human CTGF with a human IgG1 Fc Tag or rat or murine CTGF without a tag were directly immobilized to a CM5 Chip. The carboxyl groups on the chip were activated using 1-ethyl-3-(3-dimethylaminopropyl)-carbodiimide (EDC) and N-hydroxysuccinimide (NHS). […] Residual non-reacted NHS-esters were blocked by passing a solution of 1 M ethanolamine across the surface. The reference channel was activated/deactivated. For the capture setting, targets with an IgG Fc Tag at 0.25-2.5 μg/mL in HBS-EP+ buffer were captured by the anti-human IgG-Fc antibody at the chip surface for 180 s at a flow rate of 10 μL/min.
(§3) The binding assay was carried out with a contact time of 180 s, a dissociation time of 900-3600 s and a flow rate of 30 μL/min. All measurements were performed at 25° C. […] For the directly immobilized targets, the same regeneration conditions were used. Prior to the protein measurements, three startup cycles were performed for conditioning purposes.

mouse CTGF (Abbexa) = target: T2, mouse CTGF (Abbexa) (mouse, UniProt P29268 26-348, limits assumed)
T2 construct: also called Murine CTGF; mCTGF
T2 sequence (looked up): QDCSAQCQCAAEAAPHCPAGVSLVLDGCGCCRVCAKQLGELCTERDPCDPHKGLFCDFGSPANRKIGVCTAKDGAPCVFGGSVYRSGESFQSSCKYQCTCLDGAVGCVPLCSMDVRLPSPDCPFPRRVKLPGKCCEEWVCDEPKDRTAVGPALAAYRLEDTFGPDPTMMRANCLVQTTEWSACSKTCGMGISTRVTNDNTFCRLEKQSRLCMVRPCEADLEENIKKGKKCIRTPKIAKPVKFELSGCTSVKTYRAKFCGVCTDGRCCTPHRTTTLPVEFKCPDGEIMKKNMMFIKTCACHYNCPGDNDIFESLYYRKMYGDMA
Experimental: as §1, §2, §3

[2] = target: T3, recombinant rat CTGF protein (R&D Systems) (rat, UniProt Q9R1E9 25-347)
T3 construct: Bought; also called rCTGF
T3 sequence: T2 sequence (looked up) with H16R, A148V
Experimental: as §1, §2, §3

cynomolgus CTGF = target: T4, cynomolgus CTGF (cynomolgus, UniProt I7G525 27-349)
T4 construct: also called cyCTGF
T4 sequence: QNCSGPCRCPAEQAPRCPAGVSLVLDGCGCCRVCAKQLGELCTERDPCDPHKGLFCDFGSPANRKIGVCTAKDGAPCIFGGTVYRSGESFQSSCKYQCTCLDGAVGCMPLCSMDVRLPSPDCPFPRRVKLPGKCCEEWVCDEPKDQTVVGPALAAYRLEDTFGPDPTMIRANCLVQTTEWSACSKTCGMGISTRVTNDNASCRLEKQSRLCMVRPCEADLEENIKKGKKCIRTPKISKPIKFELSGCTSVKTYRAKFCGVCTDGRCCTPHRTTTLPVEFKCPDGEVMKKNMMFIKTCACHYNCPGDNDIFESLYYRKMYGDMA
Experimental: as §1, §2, §3

T1 sequence (chain, as listed by the source limits assumed): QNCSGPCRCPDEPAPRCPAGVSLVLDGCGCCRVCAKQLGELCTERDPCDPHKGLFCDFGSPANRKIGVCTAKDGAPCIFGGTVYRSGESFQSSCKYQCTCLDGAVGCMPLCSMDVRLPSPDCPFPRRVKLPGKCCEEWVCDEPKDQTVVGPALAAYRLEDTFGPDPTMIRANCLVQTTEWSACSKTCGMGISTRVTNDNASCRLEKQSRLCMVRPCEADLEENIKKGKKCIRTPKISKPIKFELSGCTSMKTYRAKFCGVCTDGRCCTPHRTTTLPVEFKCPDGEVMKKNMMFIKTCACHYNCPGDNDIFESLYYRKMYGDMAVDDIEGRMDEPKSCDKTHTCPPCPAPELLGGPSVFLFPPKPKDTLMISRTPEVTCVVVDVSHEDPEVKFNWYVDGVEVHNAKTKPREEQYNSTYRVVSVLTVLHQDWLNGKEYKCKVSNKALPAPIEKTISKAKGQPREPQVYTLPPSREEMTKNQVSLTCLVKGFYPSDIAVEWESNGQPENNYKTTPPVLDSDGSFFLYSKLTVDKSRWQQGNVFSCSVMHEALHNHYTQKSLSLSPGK

Kd [1]: 0.517 nM
koff [1]: 2.61e-05 s⁻¹
kon [1]: 50400 M⁻¹ s⁻¹
Kd (mouse CTGF (Abbexa)): 1.35 nM
koff (mouse CTGF (Abbexa)): 8.23e-05 s⁻¹
kon (mouse CTGF (Abbexa)): 60700 M⁻¹ s⁻¹
B2: lipocalin mutein of SEQ ID NO: 28 (designed binder)
chain: QDSTSDLIPAPPLSKVPLQQNFQDNQFQGKWYVVGLAGNYRLREDKDPSKMGATIYELKEDKSYDVTQVQFDDKKCLYVIETFVPGSQPGEFTLGAIKSYPGLTSQLVRVVSTNYNQHAMVFVKKVWPNLEYFQIVLYGRTKELTSELKENFIRFSKSLGLPENHIVFPVPIDQCIDG
notes: also called hNGAL mutein; not shown: C-terminal His-tag

Kd [1]: 0.033 nM
koff [1]: 2.23e-06 s⁻¹
kon [1]: 67700 M⁻¹ s⁻¹
Kd [2]: 0.46 nM
koff [2]: 4.08e-05 s⁻¹
kon [2]: 88800 M⁻¹ s⁻¹
B4: lipocalin mutein of SEQ ID NO: 10 (designed binder)
chain: QDSTSDLIPAPPLSKVPLQQNFQDNQFQGKWYVVGLAGNAILREDKQPAKMFATIYELKEDKSYDVTSVRFEAKSCSYTIKTFVPGSQPGEFTAGNIKSAPGQTSTLVRVVSTNYNQHAMVFWKSVAGTRESFNIALYGRTKELTSELKENFIRFSKSLGLPENHIVFPVPIDQCIDG
notes: as for B2

Kd [1]: 0.057 nM
koff [1]: 8.05e-06 s⁻¹
kon [1]: 142000 M⁻¹ s⁻¹
Kd [2]: 0.221 nM
koff [2]: 4.01e-05 s⁻¹
kon [2]: 181000 M⁻¹ s⁻¹
B6: lipocalin mutein of SEQ ID NO: 22 (designed binder)
chain: QDSTSDLIPAPPLSKVPLQQNFQDNQFQGKWYVVGIAGNAILRVDKQPAKMFATIYELKEDKSYDVTSVRFEAKSCVYTIKTFVPGSQPGEFTAGNIKSAPGQTSTLVRVVSTNYNQHAMVFFKHVSQNREIFVITLYGRTKELTSELKENFIRFSKSLGLPENHIVFPVPIDQCIDG
notes: as for B2

Kd [1]: 0.587 nM
koff [1]: 6.39e-05 s⁻¹
kon [1]: 109000 M⁻¹ s⁻¹
Kd (mouse CTGF (Abbexa)): 1.98 nM
koff (mouse CTGF (Abbexa)): 0.000264 s⁻¹
kon (mouse CTGF (Abbexa)): 133000 M⁻¹ s⁻¹
B8: lipocalin mutein of SEQ ID NO: 32 (designed binder)
chain: QDSTSDLIPAPPLSKVPLQQNFQDNQFQGKWYVVGWAGNVKLREDKQPFKMSATIYELKEDKSYDVTEVVFEQKKCHYIIKTFVPGSQPGEFTLSPISSSPGLVSHLVRVVSTNYNQHAMVFFKKVHQNREFFWITLYGRTKELTSELKENFIRFSKSLGLPENHIVFPVPIDQCIDG
notes: as for B2

Kd (cynomolgus CTGF): 0.695 nM
koff (cynomolgus CTGF): 9.77e-05 s⁻¹
kon (cynomolgus CTGF): 141000 M⁻¹ s⁻¹
Kd [1]: 0.42 nM
koff [1]: 6.95e-05 s⁻¹
kon [1]: 165000 M⁻¹ s⁻¹
Kd (mouse CTGF (Abbexa)): 1.68 nM
koff (mouse CTGF (Abbexa)): 0.00052 s⁻¹
kon (mouse CTGF (Abbexa)): 310000 M⁻¹ s⁻¹
B9: lipocalin mutein of SEQ ID NO: 36 (designed binder)
chain: B8 chain with F49A, L94A, S95G, P96D, S98K, S100P, L103Y, V104T, H106S, H127G
notes: also called hNGAL mutein

Kd [1]: 0.099 nM
koff [1]: 1.71e-05 s⁻¹
kon [1]: 172000 M⁻¹ s⁻¹
Kd [2]: 0.226 nM
koff [2]: 6.3e-05 s⁻¹
kon [2]: 279000 M⁻¹ s⁻¹
Kd (mouse CTGF (Abbexa)): 0.301 nM
koff (mouse CTGF (Abbexa)): 5.29e-05 s⁻¹
kon (mouse CTGF (Abbexa)): 176000 M⁻¹ s⁻¹
B11: lipocalin mutein of SEQ ID NO: 33 (designed binder)
chain: QDSTSDLIPAPPLSKVPLQQNFQDNQFQGKWYVVGWAGNAKLREDKQPFKMSATIYELKEDKSYDVTEVVFEQKKCHYIIKTFVPGSQPGEFTEGNYKRRPRLWSDLVRVVSTNYNQHAMVFFKKVHQNREFFWITLYGRTKELTSELKENFIRFSKSLGLPENHIVFPVPIDQCIDG
notes: as for B2

Kd (cynomolgus CTGF): 0.135 nM
koff (cynomolgus CTGF): 2.63e-05 s⁻¹
kon (cynomolgus CTGF): 195000 M⁻¹ s⁻¹
Kd [1]: 0.09 nM
koff [1]: 1.41e-05 s⁻¹
kon [1]: 157000 M⁻¹ s⁻¹
Kd [2]: 0.255 nM
koff [2]: 3.51e-05 s⁻¹
kon [2]: 138000 M⁻¹ s⁻¹
Kd (mouse CTGF (Abbexa)): 0.034 nM
koff (mouse CTGF (Abbexa)): 1.16e-05 s⁻¹
kon (mouse CTGF (Abbexa)): 299000 M⁻¹ s⁻¹
B13: lipocalin mutein of SEQ ID NO: 24 (designed binder)
chain: B6 chain with I36V, V44T, V77K
notes: also called hNGAL mutein

Kd [1]: 2.52 nM
koff [1]: 0.000114 s⁻¹
kon [1]: 45400 M⁻¹ s⁻¹
Kd (mouse CTGF (Abbexa)): 1.81 nM
koff (mouse CTGF (Abbexa)): 0.000131 s⁻¹
kon (mouse CTGF (Abbexa)): 72000 M⁻¹ s⁻¹
B14: lipocalin mutein of SEQ ID NO: 8 (designed binder)
chain: QDSTSDLIPAPPLSKVPLQQNFQDNQFQGKWYVVGLAGNYGLRTDKRPSKMFATIYELKEDKSYDVTSVRFEQERCHYTIRTFVPGSQPGEFTSGNIGNYPGSYSTLVRVVSTNYNQHAMVFFKSVIQNREYFAITLYGRTKELTSELKENFIRFSKSLGLPENHIVFPVPIDQCIDG
notes: as for B2

The remaining lines, values behind:

B1: lipocalin mutein of SEQ ID NO: 27 (designed binder)
chain: B2 chain with V123L, W127Y, P128G, N129S, L130E, Q134H, V136T
notes: as for B2
Kd [1]: 0.802 nM
koff [1]: 2.45e-05 s⁻¹
kon [1]: 30500 M⁻¹ s⁻¹
Kd (mouse CTGF (Abbexa)): 4.16 nM
koff (mouse CTGF (Abbexa)): 0.000172 s⁻¹
kon (mouse CTGF (Abbexa)): 41400 M⁻¹ s⁻¹

B3: lipocalin mutein of SEQ ID NO: 26 (designed binder)
chain: QDSTSDLIPAPPLSKVPLQQNFQDNQFQGKWYVVGLAGNYRLREDKDPSKMGATIYELKEDKSYDVTQVQFDDKKCLYVIETFVPGSQPGEFTLGNIKVYPTLESQLVRVVSTNYNQHAMVFFKKVYQNREVFWITLYGRTKELTSELKENFIRFSKSLGLPENHIVFPVPIDQCIDG
notes: as for B2
Kd [1]: 1.32 nM
koff [1]: 3.06e-05 s⁻¹
kon [1]: 23200 M⁻¹ s⁻¹
Kd (mouse CTGF (Abbexa)): 5.89 nM
koff (mouse CTGF (Abbexa)): 0.000208 s⁻¹
kon (mouse CTGF (Abbexa)): 35300 M⁻¹ s⁻¹

B5: lipocalin mutein of SEQ ID NO: 19 (designed binder)
chain: B6 chain with I36L, V44E, V77S, F123H, H125A, I132S
notes: as for B2
Kd [1]: 0.918 nM
koff [1]: 5.2e-05 s⁻¹
kon [1]: 56600 M⁻¹ s⁻¹
Kd (mouse CTGF (Abbexa)): 0.273 nM
koff (mouse CTGF (Abbexa)): 2.54e-05 s⁻¹
kon (mouse CTGF (Abbexa)): 93200 M⁻¹ s⁻¹

B7: lipocalin mutein of SEQ ID NO: 21 (designed binder)
chain: B4 chain with W123F, S125A, A127R, T129A
notes: as for B2
Kd [1]: 0.523 nM
koff [1]: 6.63e-05 s⁻¹
kon [1]: 127000 M⁻¹ s⁻¹
Kd (mouse CTGF (Abbexa)): 0.173 nM
koff (mouse CTGF (Abbexa)): 3.94e-05 s⁻¹
kon (mouse CTGF (Abbexa)): 228000 M⁻¹ s⁻¹

B10: lipocalin mutein of SEQ ID NO: 35 (designed binder)
chain: B8 chain with F49L, L94A, S95G, P96D, S98K, S100P, L103Y, V104T, H106S, H127S
notes: as for B2
Kd [1]: 0.55 nM
koff [1]: 5.94e-05 s⁻¹
kon [1]: 108000 M⁻¹ s⁻¹
Kd [2]: 1.42 nM
koff [2]: 0.000273 s⁻¹
kon [2]: 193000 M⁻¹ s⁻¹
Kd (mouse CTGF (Abbexa)): 2.24 nM
koff (mouse CTGF (Abbexa)): 0.000287 s⁻¹
kon (mouse CTGF (Abbexa)): 128000 M⁻¹ s⁻¹

B12: lipocalin mutein of SEQ ID NO: 34 (designed binder)
chain: B8 chain with K41I, S95G, P96D, S98K, S100P, L103E, V104T, H106T, H127S
notes: also called hNGAL mutein
Kd (cynomolgus CTGF): 1.72 nM
koff (cynomolgus CTGF): 0.000238 s⁻¹
kon (cynomolgus CTGF): 139000 M⁻¹ s⁻¹
Kd [1]: 1.13 nM
koff [1]: 0.000169 s⁻¹
kon [1]: 150000 M⁻¹ s⁻¹
Kd (mouse CTGF (Abbexa)): 11.9 nM
koff (mouse CTGF (Abbexa)): 0.00286 s⁻¹
kon (mouse CTGF (Abbexa)): 240000 M⁻¹ s⁻¹

B15: lipocalin mutein of SEQ ID NO: 5 (designed binder)
chain: QDSTSDLIPAPPLSKVPLQQNFQDNQFQGKWYVVGKAGNALREDKEPPKMWATIYELKEDKSYDVTHVHFLTKKCKYLIDTFVPGSQPGEFTIGAIKSGPGLTSPLVRVVSTNYNQHAMVFFKWVSQNREWFTITLYGRTKELTSELKENFIRFSKSLGLPENHIVFPVPIDQCIDG
notes: as for B2
Kd [1]: 0.315 nM
koff [1]: 6.65e-05 s⁻¹
kon [1]: 211000 M⁻¹ s⁻¹
Kd [2]: 1.23 nM
koff [2]: 0.000362 s⁻¹
kon [2]: 294000 M⁻¹ s⁻¹
